Source: PMC6009577

Target: G4-P351A fragment of DGCR8 (proline at 351 to alanine) (human) (UniProt Q8WYQ5)
Assay: SEC

stoichiometry N: 2
Substance: G4-P351A fragment of DGCR8 (proline at 351 to alanine) (from UniProt Q8WYQ5 1-773) (domain or fragment)
